This assay has as its target neonatal Fc receptor (FcRn) (UniProt P55899 24-297, limits assumed). Briefly: comparison of observed KD values; the assay for FcRn is not described here.

Sequence of neonatal Fc receptor (FcRn) (P55899 24-297 limits assumed, form in doubt, chain 1 of 2): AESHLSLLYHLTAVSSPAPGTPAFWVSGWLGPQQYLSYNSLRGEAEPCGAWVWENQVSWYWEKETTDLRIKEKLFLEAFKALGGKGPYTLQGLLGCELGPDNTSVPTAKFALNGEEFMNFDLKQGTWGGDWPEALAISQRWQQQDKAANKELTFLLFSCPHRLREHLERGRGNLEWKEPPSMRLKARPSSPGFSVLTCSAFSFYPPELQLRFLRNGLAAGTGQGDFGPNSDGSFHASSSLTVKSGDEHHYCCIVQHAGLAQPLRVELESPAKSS
Sequence of neonatal Fc receptor (FcRn) (chain, as listed by the source limits assumed, form in doubt, chain 2 of 2): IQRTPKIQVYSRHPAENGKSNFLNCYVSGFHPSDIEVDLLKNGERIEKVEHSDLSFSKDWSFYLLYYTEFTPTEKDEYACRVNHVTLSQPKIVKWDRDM

B1: human alpha-fetoprotein (AFP) (ligand)
chain: RTLHRNEYGIASILDSYQCTAEISLADLATIFFAQFVQEATYKEVSKMVKDALTAIEKPTGDEQSSGCLENQLPAFLEELCHEKEILEKYGHSDCCSQSEEGRHNCFLAHKKPTPASIPLFQVPEPVTSCEAYEEDRETFMNKFIYEIARRHPFLYAPTILLWAARYDKIIPSCCKAENAVECFQTKAATVTKELRESSLLNQHACAVMKNFGTRTFQAITVTKLSQKFTKVNFTEIQKLVLDVAHVHEHCCRGDVLDCLQDGEKIMSYICSQQDTLSNKITECCKLTTLERGQCIIHAENDEKPEGLSPNLNRFLGDRDFNQFSSGEKNIFLASFVHEYSRRHPQLAVSVILRVAKGYQELLEKCFQTENPLECQDKGEEELQKYIQESQALAKRSCGLFQKLGEYYLQNAFLVAYTKKAPQLTSSELMAITRKMAATAATCCQLSEDKLLACGEGAADIIIGHLCIRHEMTPVNPGVGQCCTSSYANRRPCFSSLVVDETYVPPAFSDDKFIFHKDLCQAQGVALQTMKQEFLINLVKQKPQITEEQLEAVIADFSGLLEKCCQGQEQEVCFAEEGQKLISKTRAALGV
notes: also called hAFP; human AFP
B1: the “fold higher affinity than AFP to β2M” value was found to be 100 fold.
